The target in assay [1] is human sialoadhesin factor-3 (SAF-3), on cells (human) (UniProt Q9Y286). Put plainly: flow cytometry on monocyte-derived DCs cultured 7 days with mAb 12B1. (In flow cytometry, cells or beads pass a laser one at a time.)
In the next assay the target is SAF-2 (UniProt Q9NYZ4 17-363, limits assumed). Put plainly: displacement immunoassay.
Chain of SAF-2 (Q9NYZ4 17-363 limits assumed): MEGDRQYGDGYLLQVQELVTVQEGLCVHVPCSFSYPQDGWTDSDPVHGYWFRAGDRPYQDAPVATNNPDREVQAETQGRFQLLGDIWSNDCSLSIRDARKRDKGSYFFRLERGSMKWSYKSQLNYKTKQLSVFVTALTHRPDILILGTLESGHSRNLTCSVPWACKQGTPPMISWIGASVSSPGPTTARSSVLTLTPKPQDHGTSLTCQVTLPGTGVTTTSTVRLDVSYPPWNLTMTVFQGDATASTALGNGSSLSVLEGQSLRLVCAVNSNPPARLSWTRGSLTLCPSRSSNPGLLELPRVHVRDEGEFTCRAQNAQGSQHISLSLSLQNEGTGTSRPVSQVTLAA

Chain of human sialoadhesin factor-3 (SAF-3), on cells (human) (Q9Y286 19-467 L192P/I393V limits assumed): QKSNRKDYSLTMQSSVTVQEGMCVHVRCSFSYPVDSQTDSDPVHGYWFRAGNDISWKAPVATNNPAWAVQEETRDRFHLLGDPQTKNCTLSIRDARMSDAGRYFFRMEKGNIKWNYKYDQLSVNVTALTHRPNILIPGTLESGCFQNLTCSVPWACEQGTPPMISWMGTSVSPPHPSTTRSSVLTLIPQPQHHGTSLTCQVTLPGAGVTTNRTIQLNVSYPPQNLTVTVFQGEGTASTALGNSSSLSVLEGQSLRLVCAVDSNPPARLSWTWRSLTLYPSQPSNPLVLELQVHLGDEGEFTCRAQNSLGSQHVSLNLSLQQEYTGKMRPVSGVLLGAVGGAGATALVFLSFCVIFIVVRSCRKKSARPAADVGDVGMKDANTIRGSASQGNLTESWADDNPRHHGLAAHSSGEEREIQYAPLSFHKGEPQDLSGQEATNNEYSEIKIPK

Consider Isotype Control (antibody), for which the Mean Fluorescent Intensity in assay [1] turned out to be 3.5 MFI.

B1: monoclonal antibody 12B1 (antibody, IgG2a, V domains shown)
VH: QIQLQQSGPELVKPGASVKVSCKASGYSFTDYNIYWVKQSHGKSLEWIGYIDPYNDDTGYNQKFKGKATLTVDKSSSTAFMHLNSLTSEDSAVYYCASEGIHWGQGTLVTVS
VL: DIVMTQSQKFMSTSVGDRVSVTCKASQNVGTNVAWFQQKPGQSPKALIYSASYRYNGVPDRFTGSGSGTDFTLTISNVQSEDLADYFCQQYNIYPYTFGGGTKLEIK
notes: also called mAb 12B1; SAF-3 mAb (clone 12B1)
On to B1, for which, in the assay with SAF-2, the binding result is given as “no binding (tested: max. displacement 5%)”.

Values taken from patent publication US20060073133A1 (published 2006).
